According to patent US20220241413A1, “COMBINATION THERAPIES USING CD-38 ANTIBODIES” (Takeda Pharmaceutical Company Limited, priority 2019, published 2022):

Tests used:
[1] = AB79-1002 phase 1b study, AB79 with LenDex or VRd in NDMM: safety; format: in vivo
Text: This is a Phase 1b, open-label, multicenter study to evaluate the safety, efficacy, tolerability, and pharmacokinetics (PK) of AB79 when added to 1 of 2 standard backbone regimens (lenalidomide plus dexamethasone [LenDex] or bortezomib [Velcade] plus lenalidomide and dexamethasone [VRd]) in adult patients with newly diagnosed multiple myeloma (NDMM) for whom stem cell transplantation (SCT) is not planned as initial therapy. The dose and schedule for the backbone regimens (LenDex and VRd) are given in accordance with product labeling or standard medical practice. Treatment cycles are 28 days until disease progression (PD) or unacceptable toxicity occurs. Treatment may be discontinued for other reasons listed below. AB79 is supplied by the sponsor. Bortezomib, dexamethasone, and lenalidomide are standard-of-care agents that are supplied from commercial sources.
300 mg of AB79 is administered subcutaneously once weekly for 8 weeks (8 doses), once every 2 weeks for 16 weeks (8 doses), and once every 4 weeks thereafter until PD (in combination with backbone therapy). Backbone therapies (LenDex or VRd) are dosed in accordance with product labeling/local institutional practices. VRd is given with bortezomib weekly×3 weeks and LenDex in a standard 28 day cycle. Patients are evaluated from first dose of AB79 until 30 days after PD or until protocol-defined treatment discontinuation criteria are met.
Changes in clinical laboratory parameters (standard hematology and chemistry), vital sign, electrocardiogram (ECG) monitoring, and Eastern Cooperative Oncology Group (ECOG) performance status that are judged by the investigator as clinically significant are recorded both on the source documentation and in the electronic case report (eCRF) as an AE. Toxicities that occur during the DLT evaluation period are used for the purposes of defining DLT and for subsequent cohort expansion or dose modification decisions. DLTs are based on AB79-related toxicities.
The study was designed to determine the recommended phase 2 dose (RP2D) and to provide a preliminary assessment of the AB79 combinations against NDMM. Parameters such as safety, tolerability, pharmacokinetics (PK), pharmacodynamics (PD), and disease response were assessed.

[2] = test system: relapsed/refractory multiple myeloma (RRMM); assay: AB79-1501 study, AB79 plus PomDex combination cohort in RRMM: disease response; format: in vivo, human
Text: This is a multicenter, dose-escalation, open-label, single-arm, Phase 1/2a study designed to determine the safety, tolerability, efficacy, PK, and immunogenicity of AB79 monotherapy in patients with RRMM, and to provide a preliminary assessment of its activity against MM. This study is an amendment to the Phase 1/2a study in RRMM described in Example 1 (a) to allow for an increase in the number of patients enrolled in the Phase 1 study; and (b) to add a cohort of patients to evaluate AB79 combined with the backbone regimen of pomalidomide and dexamethasone (PomDex) in patients with RRMM who have received at least 2 prior therapies and are refractory to the last therapy before study entry. PomDex is approved for this patient population and adding an anti-CD38 monoclonal antibody to it, especially one that is given subcutaneously (SC), could be beneficial and convenient for patients.
The study provides a Confirmation Cohort and a Combination Cohort. […]
The preliminary efficacy of AB79 for MM is evaluated by measuring the ORR (defined as the proportion of patients who achieved a PR or better during study) and the composition of sCR, CR, VGPR, and PR as defined by the IMWG Uniform Response Criteria. MR will also be analyzed. In addition, the efficacy of AB79 is assessed in patients by measuring DOR, PFS, and 1-year OS. TTR will also be measured. […]

[3] = AB79 300 or 600 mg with LenDex or VRd, 10 patients enrolled

Substance: AB79: anti-CD38 monoclonal IgG1 antibody; heavy chain SEQ ID NO:11, light chain SEQ ID NO:12
- TEAE regardless of causality: abdominal pain [1, 3]: 2 patients
- TEAE regardless of causality: chills [1, 3]: 2 patients
- TEAE regardless of causality: decreased lymphocyte count [1, 3]: 5 patients
- TEAE regardless of causality: diarrhea [1, 3]: 3 patients
- TEAE regardless of causality: dysgeusia [1, 3]: 2 patients
- TEAE regardless of causality: fatigue [1, 3]: 2 patients
- TEAE regardless of causality: muscle spasms [1, 3]: 2 patients
- TEAE regardless of causality: nausea [1, 3]: 2 patients
- TEAE regardless of causality: neutropenia [1, 3]: 2 patients
- TEAE regardless of causality: peripheral edema [1, 3]: 2 patients
- TEAE regardless of causality: sinusitis [1, 3]: 2 patients
- dose-limiting toxicities (DLTs) ([1]; AB79 with LenDex or VRd): No DLTs
- drug-related serious AEs, AEs that resulted in any drug discontinuation, or on-study deaths ([1]; AB79 with LenDex or VRd): no
- clinical benefit rate (minor response or better) [2]: 100%
- preliminary objective response rate (ORR) [2]: 40%
